Test results taken from patent US20160368960A1.

What was measured:
[1] = target: rat GLP-1-R (rat) (UniProt P32301); assay: cell-based or functional assay
[2] = target: human Gcg receptor (human) (UniProt P47871); assay: cell-based or functional assay
human Gcg receptor (human), sequence (P47871 26-477): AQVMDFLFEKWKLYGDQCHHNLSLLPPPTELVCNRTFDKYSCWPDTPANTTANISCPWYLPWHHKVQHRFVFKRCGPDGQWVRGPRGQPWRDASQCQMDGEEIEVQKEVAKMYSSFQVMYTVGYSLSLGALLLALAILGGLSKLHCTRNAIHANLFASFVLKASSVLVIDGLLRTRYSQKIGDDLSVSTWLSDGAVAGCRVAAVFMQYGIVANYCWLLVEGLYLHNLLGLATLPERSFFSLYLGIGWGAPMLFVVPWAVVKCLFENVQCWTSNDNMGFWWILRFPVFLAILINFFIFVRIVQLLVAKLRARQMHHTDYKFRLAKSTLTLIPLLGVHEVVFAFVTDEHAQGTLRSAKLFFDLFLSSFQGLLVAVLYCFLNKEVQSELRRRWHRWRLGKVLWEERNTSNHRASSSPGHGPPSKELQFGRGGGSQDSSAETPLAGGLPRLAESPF

Wild type human OXM (ligand), sequence (peptide): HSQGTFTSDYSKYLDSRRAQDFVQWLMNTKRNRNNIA

Substance	Emax (%), cAMP production in INS1 832-3 cells [1] [%]	Emax (%), cAMP production in primary human hepatocytes [2] [%]
Semaglutide (peptide)	107	–
Wild type human OXM (ligand)	–	90
